Assay results published in article PMC2267168, “Competition between Delta and the Abruptex domain of Notch” (BMC Developmental Biology, 2008).
Residue numbers refer to the chain shown, from its start. In names and notes the source's numbering stands. Like-named read-outs stand apart in the source and are kept apart here. Values belong to the binder of their own block, whether it stands above or below them.

How the values were obtained:
N11-20:V5:His [1] = molecular target: T1, N11-20:V5:His (Drosophila, UniProt P07207 447-832); experiment: ELISA
T1 chain: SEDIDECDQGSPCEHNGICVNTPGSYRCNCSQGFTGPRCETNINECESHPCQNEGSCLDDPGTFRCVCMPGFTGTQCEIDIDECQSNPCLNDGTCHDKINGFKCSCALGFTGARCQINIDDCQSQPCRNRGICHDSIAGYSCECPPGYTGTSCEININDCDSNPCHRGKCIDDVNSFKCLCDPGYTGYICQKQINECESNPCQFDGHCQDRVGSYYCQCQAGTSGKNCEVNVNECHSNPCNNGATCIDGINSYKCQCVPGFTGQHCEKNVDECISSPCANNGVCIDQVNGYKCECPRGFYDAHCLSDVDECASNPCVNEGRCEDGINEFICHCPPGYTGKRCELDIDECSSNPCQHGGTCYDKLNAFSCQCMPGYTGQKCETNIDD

N11-14:V5:His [2] = molecular target: T2, N11-14:V5:His (Drosophila, UniProt P07207 447-605); experiment: ELISA
T2 chain: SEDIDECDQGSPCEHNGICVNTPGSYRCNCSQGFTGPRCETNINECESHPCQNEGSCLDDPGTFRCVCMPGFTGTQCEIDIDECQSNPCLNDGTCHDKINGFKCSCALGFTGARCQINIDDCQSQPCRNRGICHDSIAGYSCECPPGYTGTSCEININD

N11-20:V5:His [3] = molecular target: T1, N11-20:V5:His; experiment: ELISA; pH 5.4
N11-20:V5:His [4] = molecular target: T1, N11-20:V5:His; experiment: ELISA
N11-14:V5:His [5] = molecular target: T2, N11-14:V5:His; experiment: ELISA
N11-14spl:V5:His [6] = molecular target: T3, N11-14spl:V5:His (Drosophila, UniProt P07207 447-605, I578T); experiment: ELISA
T3 sequence: T2 chain with I132T

N11-20:V5:His [7] = molecular target: T1, N11-20:V5:His; experiment: ELISA; pH 7.4
N21-30:V5:His = molecular target: T4, N21-30:V5:His (Drosophila, UniProt P07207 827-1224); experiment: ELISA; competition: 10 ng (2.74 nM) N21-30:Fc or 100 ng (23.2 nM) Dl:Fc on adsorbed N11-20, with increasing amounts of soluble Dl:V5:His or N21-30:V5:His; settings: both partners purified
T4 construct: source: Drosophila Schneider cells, transfected, secreted; purified from conditioned medium (ProBond resin)
T4 sequence (looked up): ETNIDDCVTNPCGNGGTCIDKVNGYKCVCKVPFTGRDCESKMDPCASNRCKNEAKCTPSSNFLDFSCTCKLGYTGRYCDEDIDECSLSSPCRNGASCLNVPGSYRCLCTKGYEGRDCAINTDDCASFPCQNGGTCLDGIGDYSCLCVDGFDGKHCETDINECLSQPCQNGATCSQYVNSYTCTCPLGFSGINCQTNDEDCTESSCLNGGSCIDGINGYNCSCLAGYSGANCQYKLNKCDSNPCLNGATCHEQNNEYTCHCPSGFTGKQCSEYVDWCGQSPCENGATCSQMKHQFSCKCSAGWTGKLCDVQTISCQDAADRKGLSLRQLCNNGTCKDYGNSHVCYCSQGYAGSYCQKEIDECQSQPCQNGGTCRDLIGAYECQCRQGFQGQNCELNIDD

N21-30:Fc [8] = molecular target: T5, N21-30:Fc (Drosophila, UniProt P07207 827-1224); experiment: as above; settings: both partners purified
T5 construct: also called Abruptex region; EGF repeat 21-30 region of Notch; source: Drosophila Schneider cells, transfected, secreted; purified from conditioned medium (Protein A beads); not shown: Fc (human IgG), C-terminal, kept
T5 sequence (looked up): T4 sequence (looked up)

N21-30:Fc [9] = molecular target: T5, N21-30:Fc; experiment: ELISA; as the plate assay, at pH 7.4 in citric acid/Na2HPO4 or Tris maleate/NaOH buffer in place of Tris pH 8.0; settings: both partners purified
N11-14:V5:His [10] = molecular target: T2, N11-14:V5:His; experiment: ELISA
N11-14spl:V5:His [11] = molecular target: T3, N11-14spl:V5:His; experiment: ELISA; remark: listed apart in the source
N11-20:V5:His [12] = molecular target: T1, N11-20:V5:His; experiment: ELISA; 200 ng His-tagged protein adsorbed to a 96-well plate at 4°C overnight, blocked with 3% BSA; purified Fc fusion added in TBS (10 mM Tris-Cl pH 8.0, 150 mM NaCl, 1 mM CaCl2) for 2 h; detected with HRP anti-human IgG; half-maximal binding ('Kd') fitted with Prizm, said not to be a true Kd

B2: N11-20:V5:His (domain or fragment, Drosophila, UniProt P07207 447-832, looked up)
chain: T1 chain
notes: also called EGF repeats 11-20 of the N extracellular domain; source: Drosophila Schneider cells, transfected, secreted; purified from conditioned medium (ProBond resin)
binding result (N21-30:V5:His): binds | binding result (N21-30:Fc [8]): binds

B4: N11-14spl:V5:His (domain or fragment, Drosophila, UniProt P07207 447-605, looked up)
chain: T2 chain with I132T
notes: Notch, Drosophila, EGF repeats 11-14 with the I578T change of the split (spl) allele in EGF repeat 14; limits as N11-14, Ser447 to Asp605; also called split mutant; source: Drosophila Schneider cells, transfected, secreted; purified from conditioned medium (ProBond resin)
binding result (N21-30:Fc [9]): binds

B6: N22-27:Fc (Fc fusion)
chain: KMDPCASNRCKNEAKCTPSSNFLDFSCTCKLGYTGRYCDEDIDECSLSSPCRNGASCLNVPGSYRCLCTKGYEGRDCAINTDDCASFPCQNGGTCLDGIGDYSCLCVDGFDGKHCETDINECLSQPCQNGATCSQYVNSYTCTCPLGFSGINCQTNDEDCTESSCLNGGSCIDGINGYNCSCLAGYSGANCQYKLNKCDSNPCLNGATCHEQNNEYTCHCPSGFTGKQCS
Kd (N11-14:V5:His [2]): 12.6 nM

B7: Dl:Fc (Fc fusion)
chain: QVHSSGSFELRLKYFSNDHGRDNEGRCCSGESDGATGKCLGSCKTRFRVCLKHYQATIDTTSQCTYGDVITPILGENSVNLTDAQRFQNKGFTNPIQFPFSFSWPGTFSLIVEAWHDTNNSGNARTNKLLIQRLLVQQVLEVSSEWKTNKSESQYTSLEYDFRVTCDLNYYGSGCAKFCRPRDDSFGHSTCSETGEIICLTGWQGDYCHIPKCAKGCEHGHCDKPNQCVCQLGWKGALCNECVLEPNCIHGTCNKPWTCICNEGWGGLYCNQDLNYCTNHRPCKNGGTCFNTGEGLYTCKCAPGYSGDDCENEIYSCDADVNPCQNGGTCIDEPHTKTGYKCHCANGWSGKMCEEKVLTCSDKPCHQGICRNVRPGLGSKGQGYQCECPIGYSGPNCDLQLDNCSPNPCINGGSCQPSGKCICPAGFSGTRCETNIDDCLGHQCENGGTCIDMVNQYRCQCVPGFHGTHCSSKVDLCLIRPCANGGTCLNLNNDYQCTCRAGFTGKDCSVDIDECSSGPCHNGGTCMNRVNSFECVCANGFRGKQCDE
Kd (N11-20:V5:His [3]): 4.58 nM | Kd (N11-14:V5:His [10]): 16.6 nM | Kd (N11-14spl:V5:His [11]): 23.4 nM | Kd (N11-20:V5:His [4]): 25.1 nM | EC50 (N11-20:V5:His [12]): 1.87 nM | Kd (N11-20:V5:His [7]): 29.8 nM

Results, then the binder that gave them:

Kd (N11-20:V5:His [1]): 4.5 nM | Kd (N11-14:V5:His [2]): 5.42 nM | Kd (N11-20:V5:His [3]): 34 nM | Kd (N11-20:V5:His [4]): 27.5 nM | Kd (N11-14:V5:His [5]): 21.3 nM | Kd (N11-14spl:V5:His [6]): 28.9 nM | Kd (N11-20:V5:His [7]): 16.4 nM
B1: N21-30:Fc (Fc fusion)
chain: T4 sequence (looked up)

binding result (N21-30:Fc [9]): binds
B3: N11-14:V5:His (domain or fragment, Drosophila, UniProt P07207 447-605, looked up)
chain: T2 chain
notes: also called N11-4:V5:His; EGF repeats 11-14; source: Drosophila Schneider cells, transfected, secreted; purified from conditioned medium (ProBond resin)

Kd (N11-14:V5:His [2]): 2.81 nM
B5: N26-30:Fc (Fc fusion)
chain: QTNDEDCTESSCLNGGSCIDGINGYNCSCLAGYSGANCQYKLNKCDSNPCLNGATCHEQNNEYTCHCPSGFTGKQCSEYVDWCGQSPCENGATCSQMKHQFSCKCSAGWTGKLCDVQTISCQDAADRKGLSLRQLCNNGTCKDYGNSHVCYCSQGYAGSYCQKEIDECQSQPCQNGGTCRDLIGAYECQCRQGFQGQNCELNIDD
modifications: Fc-dimerised (Fc left out); secreted from S2 cells, O-fucosylation predicted. The forward primer (Q-T-N-D-E-D-C) overlaps the reverse primer ending at Asp1025, so the printed Gln1000 is Gln1020

Kd (N11-20:V5:His [1]): 2.79 nM | Kd (N11-14:V5:His [2]): 2.77 nM
B8: N21-25:Fc (Fc fusion)
chain: ETNIDDCVTNPCGNGGTCIDKVNGYKCVCKVPFTGRDCESKMDPCASNRCKNEAKCTPSSNFLDFSCTCKLGYTGRYCDEDIDECSLSSPCRNGASCLNVPGSYRCLCTKGYEGRDCAINTDDCASFPCQNGGTCLDGIGDYSCLCVDGFDGKHCETDINECLSQPCQNGATCSQYVNSYTCTCPLGFSGINCQTNDED
